Measurements taken from patent US6486303 (UNIVERSITY OF MEDICINE AND DENTISTRY OF NEW JERSEY, dated 2002).

Biological target: T1, rat LH receptor (rat, UniProt P16235 27-700)
T1 construct: whole, on cells; also called LH receptors
Assay: not described

T1 sequence (P16235 27-700): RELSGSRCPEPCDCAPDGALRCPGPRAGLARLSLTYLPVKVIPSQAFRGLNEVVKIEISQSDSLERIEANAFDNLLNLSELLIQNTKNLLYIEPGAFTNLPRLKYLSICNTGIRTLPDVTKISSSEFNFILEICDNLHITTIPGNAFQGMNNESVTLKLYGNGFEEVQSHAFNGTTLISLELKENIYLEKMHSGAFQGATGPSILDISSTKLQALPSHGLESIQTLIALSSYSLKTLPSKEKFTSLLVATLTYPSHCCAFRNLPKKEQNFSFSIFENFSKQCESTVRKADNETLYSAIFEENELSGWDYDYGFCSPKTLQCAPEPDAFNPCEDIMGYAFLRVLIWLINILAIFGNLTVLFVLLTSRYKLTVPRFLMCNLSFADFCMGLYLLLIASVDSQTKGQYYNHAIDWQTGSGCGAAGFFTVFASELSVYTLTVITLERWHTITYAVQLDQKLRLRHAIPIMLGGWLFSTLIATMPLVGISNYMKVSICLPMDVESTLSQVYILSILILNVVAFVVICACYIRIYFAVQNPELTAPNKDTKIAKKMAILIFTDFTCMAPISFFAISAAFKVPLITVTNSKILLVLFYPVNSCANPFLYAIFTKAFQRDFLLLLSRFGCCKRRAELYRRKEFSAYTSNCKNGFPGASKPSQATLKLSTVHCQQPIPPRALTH

B1: Fos-αδ52 + Jun-hCGβ′ heterodimer (ligand)
alpha: not shown
beta: SCGGRIARLEEKVKTLKAQNSELASTANMLREQVAQLKQKVMGLRPRCRPINATLAVEKEGCPVCITVNTTICAGYCPTMTRVLQGVLPALPQVVCNYRDVRFESIRLPGCPRGVNPVVSYAVALSCQCALCRRSTTDCGGPKDHPLTCDDPRFQDSSSSKAPPPSLPSPSRLPGPSDTPILPQ
modifications: The Cys of the N-terminal SCGG in each chain is meant to form an intersubunit disulfide.
notes: Secreted from co-transfected COS-7 cells; also called Fos-Jun hCGαδ2; copies: 1 + 1
B1: binds.
